Measured values taken from article PMC10318527, “Utilization of dietary mixed-linkage β-glucans by the Firmicute Blautia producta” (The Journal of Biological Chemistry, 2023).

Molecular target: BpGH94MLG, glycoside (cellodextrin) phosphorylase of CAZy family GH94 from Blautia producta ATCC 27340 (Blautia producta ATCC 27340)
Experiment: crystal structure; crystal structure of recombinant BpGH94MLG at 2.3 Å; two copies per asymmetric unit; crystallisation methods not shown (supplement)

stoichiometry N: 2
Substance: BpGH94MLG, glycoside (cellodextrin) phosphorylase of CAZy family GH94 from Blautia producta ATCC 27340 (enzyme)
